Assay results published in the supplement of paper PMC10567573.
± gives the standard deviation.

Assay: protein stability index of a GFP-peptide fusion (GPS, HEK-293T) (PSI 1-6); higher = more stable
[1] = treatment: DMSO, c terminus: a fixed tail appended
[2] = treatment: MLN4924 1 uM, 8 h, c terminus: a fixed tail appended
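Further: 24-mer peptide tiles fused after GFP, lentivirally expressed, FACS-sorted into six equal bins by GFP/DsRed ratio, decoded by Illumina sequencing, PSI is the read-weighted mean bin number.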

| Sequence | protein stability index [1] | protein stability index [2] | protein stability index (treatment: DMSO, c terminus: native) | protein stability index (treatment: MLN4924 1 uM, 8 h, c terminus: native) |
| --- | --- | --- | --- | --- |
| SLLVTELGSSRTPETVRMVLSNME [IMPA1] | 3.15 ± 0.39 | 3.4 ± 0.23 |  |  |
| SLPPPAGLNSSWVELPMNSSNGND [BNIP3L] | 4.94 ± 0.26 | 4.88 ± 0.29 |  |  |
| SLQQQHQADLELIESAHRSRIKVL [FBF1] | 3.53 ± 0.074 | 3.47 ± 0.31 |  |  |
| SLSTSSSSSPPGTPSPADAKAPPT [CEBPB] | 5.42 ± 0.15 | 5.34 ± 0.19 |  |  |
| SLVTVGKHLTARVLCLIVLPLALY [POMT2] | 2.63 ± 0.58 | 2.58 ± 0.33 |  |  |
| SMIQEQFKKGKNPTGLLALQQIAD [ADD1] | 3.08 ± 0.18 | 3.17 ± 0.32 |  |  |
| SMQAVLDYLYTKQLSPNLDLDPLE [RHOBTB1] | 2.47 ± 0.37 | 2.19 ± 0.47 |  |  |
| SNASEDTRRLRLAHVGMELQLKQE [SCARA5] | 4.29 ± 0.33 | 4.4 ± 0.29 |  |  |
| SNEFKESALTLACYKGHLEMVRFL [ANKRD17] | 2.21 ± 0.18 | 2.4 ± 0.34 |  |  |
| SNFPRQYFALRKILKQLIADVTLD [TRIM39] | 2.54 ± 0.58 | 2.19 ± 0.53 |  |  |
| SNSSQDSLHKGAKRKGIKSSIGRL [PPFIA4] | 4.17 ± 0.22 | 4.22 ± 0.16 |  |  |
| SNWFVWVTQMNHIPMHIDHDRNMD [FADS1] | 2.09 ± 0.45 | 2.19 ± 0.13 |  |  |
| SPALQVMGPAQEAPVAEAWIPQAG [ZNF449] | 4.6 ± 0.086 | 4.65 ± 0.27 |  |  |
| SPSFQLKAAALPPFPLGASAQNGL [PLAGL1] | 3.41 ± 0.32 | 3.52 ± 0.4 |  |  |
| SPSPPVEVKIEEPVSMEMDNHMSD [INTS3] | 5.59 ± 0.19 | 5.52 ± 0.17 |  |  |
| SQAIDLLYWRDIKQTGIVFGSFLL [RTN1] | 3.03 ± 0.81 | 3.01 ± 0.47 |  |  |
| SQAPDGRRKSEAGSGAASSSGEDK [CDC25B] | 5.65 ± 0.18 | 5.58 ± 0.35 |  |  |
| SQFLKHQQTHNIEKAHECTDCGKA [ZNF649] | 4.88 ± 0.26 | 4.985 ± 0.041 |  |  |
| SQFLKLKTSVEKANAQIQILTRSW [CD207] | 2.19 ± 0.59 | 2.09 ± 0.29 |  |  |
| SRLLGSASPSSSVRLGSFRSPRAG [PRPH] | 4.08 ± 0.19 | 3.96 ± 0.18 |  |  |
| SRNFGVRNQGNFSVVGTVLAATQA [ZC2HC1C] | 2.96 ± 0.19 | 3.16 ± 0.12 |  |  |
| SRVAHIERTRKPYNNDIDYYAKRN [GALNT9] | 3.77 ± 0.37 | 3.91 ± 0.33 |  |  |
| SSETPIEGKNMSFVNDLTVTQDGR [APMAP] | 4.96 ± 0.34 | 4.87 ± 0.25 |  |  |

| Sequence | protein stability index [1] | protein stability index [2] | protein stability index (treatment: DMSO, c terminus: native) | protein stability index (treatment: MLN4924 1 uM, 8 h, c terminus: native) |
| --- | --- | --- | --- | --- |
| SSFIKTEPSSPASLTDSVNHHSPG [ESRRG] | 4.79 ± 0.17 | 4.9 ± 0.18 |  |  |
| SSFTWSVPSSGYGAVTASKHSNSP [SMTNL2] | 3.82 ± 0.26 | 3.87 ± 0.095 |  |  |
| SSGRSCRNERSIQEKLQVLMAEGL [SMG5] | 2.64 ± 0.39 | 2.88 ± 0.12 |  |  |
| SSRVPVGGGPEATLSISDVRTLSE [ZBTB22] | 4.49 ± 0.11 | 4.57 ± 0.38 |  |  |
| SSSQEIPTMPQPIEKVSVSTQTKK [ZMYND11] | 5.33 ± 0.42 | 5.37 ± 0.23 |  |  |
| SSSSGRLSEPDPSHTLEERVVHWY [SMOC2] | 3.14 ± 0.38 | 3.1 ± 0.22 |  |  |
| STETLVHVSDEDNNADLCLTDDKQ [DLC1] | 5.59 ± 0.36 | 5.59 ± 0.38 |  |  |
| STFHTISPSFQLKAAALPPFPLGA [PLAGL1] | 2.48 ± 0.46 | 2.64 ± 0.16 |  |  |
| STFRTPAVLFTGIVALYIASGLTG [ATL3] | 3.09 ± 0.38 | 3.19 ± 0.24 |  |  |
| STGEAGTDGDHNVYPRPPEPREFS [ZC2HC1C] | 5.03 ± 0.19 | 5.03 ± 0.16 |  |  |
| STKAIPEKYGAVREVILKELAEAT [ZBED1] | 3.88 ± 0.32 | 4.08 ± 0.35 |  |  |
| STPSDNIVRRFLNICENTEGAIAV [CDC14A] | 3.66 ± 0.39 | 3.66 ± 0.14 |  |  |
| SVCSCTCYRSQDYGGRSVAPQNSF [KCNK9] | 2.44 ± 0.23 | 2.64 ± 0.43 |  |  |
| SVVRRCVKVLAGQEYAAKIINTKK [CAMK2A] | 2.72 ± 0.35 | 2.52 ± 0.5 |  |  |
| SWEVVTSMGTQRCDAGVCVLREK [KLHL12] |  |  | 2.89 ± 0.46 | 3.17 ± 0.41 |
| SWSDNERSSSRINIPERASGPEGN [FAM104B] | 4.79 ± 0.11 | 4.73 ± 0.32 |  |  |
| SYLREQMLNEPLVREIVKECSNIP [GAN] | 3.21 ± 0.19 | 3.39 ± 0.45 |  |  |
| SYNACGVLSHIMFDGPEAWGVCEP [ZER1] | 2.13 ± 0.45 | 2.44 ± 0.41 |  |  |
| TALALEPDAIRSRSNTLRERSQVR [PCDHGC5] | 4.64 ± 0.14 | 4.69 ± 0.18 |  |  |
| TCCESTQRSVSDVASGSTPAPALC [IRX6] | 4.48 ± 0.067 | 4.51 ± 0.11 |  |  |
| TCSECGKGFIQKGNLNIHQRTHTG [ZNF649] | 3.24 ± 0.2 | 3.26 ± 0.25 |  |  |
| TCVNLLLEASNYQMMPYMQPVMQS [KLHL13] | 3.06 ± 0.41 | 2.98 ± 0.36 |  |  |
| TDIELEIYGMEGIPEKDMDERRRL [ZNF207] | 4.77 ± 0.097 | 4.86 ± 0.22 |  |  |

| Sequence | protein stability index [1] | protein stability index [2] | protein stability index (treatment: DMSO, c terminus: native) | protein stability index (treatment: MLN4924 1 uM, 8 h, c terminus: native) |
| --- | --- | --- | --- | --- |
| TDRSHIYTFTDTFTEKLWPLFYPG [TRIM39] | 2.16 ± 0.47 | 2.15 ± 0.56 |  |  |
| TEKTTTVLSESSGPSNTSHSSSRD [C2CD2L] | 5.42 ± 0.15 | 5.31 ± 0.25 |  |  |
| TEPEQRELKTKLTKLEAEIVTLRH [TPD52L3] | 4.23 ± 0.15 | 4.35 ± 0.26 |  |  |
| TEQSSASRLMRRHKRRRRKQKVSR [DVL3] | 5.13 ± 0.24 | 5.16 ± 0.22 |  |  |
| TFFPVALKKHGPICQKTATKKRKT [ZC2HC1A] | 3.24 ± 0.3 | 3.32 ± 0.3 |  |  |
| TFHEGKHNISHMSMDIARGLMVTC [WDFY1] | 2.49 ± 0.63 | 2.04 ± 0.14 |  |  |
| THFNTAQGFRTVLELVINYQQLCI [OAS1] | 3.26 ± 0.87 | 2.76 ± 0.37 |  |  |
| THSPQKSHQCAHCEKTFNRKDHLK [PLAGL1] | 3.97 ± 0.16 | 4.05 ± 0.28 |  |  |
| TINPLWHIRHLGWNPDARYSEHFL [GLT8D2] | 2.39 ± 0.22 | 2.32 ± 0.24 |  |  |
| TITTAAATSVTVPGAGVPSGSGGT [ZBTB22] | 4.9 ± 0.19 | 4.85 ± 0.26 |  |  |
| TIYGLHALEQGGLRAATMSAVEAA [PYCR3] | 2.85 ± 0.65 | 3.22 ± 0.8 |  |  |
| TKEKKHQCDHCERCFYTRKDVRRH [PLAGL1] | 3.69 ± 0.48 | 4.2 ± 0.5 |  |  |
| TLEFENVQVLTMGNDTSPSEGTNL [HNF4A] | 4.69 ± 0.18 | 4.52 ± 0.39 |  |  |
| TLLGNPKKRMRYFDPLRNEYFFDR [KCNA1] | 2.27 ± 0.29 | 2.3 ± 0.057 |  |  |
| TLLPASLFVNSHPGIDRPGMLCSF [DCAF4] | 2.31 ± 0.36 | 2.2 ± 0.22 |  |  |
| TLNSIWNVEDHINPKLPNISLDVL [POMT2] | 2.31 ± 0.092 | 2.48 ± 0.17 |  |  |
| TNEWEKRLSTSPVRLAARQEDAPM [EPB41L3] | 4.83 ± 0.16 | 4.51 ± 0.44 |  |  |
| TNHGYRVQVENPERFSSAPCLLGS [TRIM35] | 3.4 ± 0.17 | 3.29 ± 0.31 |  |  |
| TPIPWLSSGEPVDYNVDIGIPLDG [MYOZ1] | 3.98 ± 0.19 | 4.07 ± 0.2 |  |  |
| TPLQQVSIEEILEEQRVEQQTKLE [LSM1] | 5.37 ± 0.17 | 5.34 ± 0.29 |  |  |
| TPSPADAKAPPTACYAGAAPAPSQ [CEBPB] | 4.75 ± 0.38 | 4.75 ± 0.27 |  |  |
| TRFILSKVPSEAPSPMPTHRSYLG [SLC6A17] | 2.73 ± 0.31 | 2.64 ± 0.26 |  |  |
| TRLSRLQEKEELRELNDRLAVYID [LMNB1] | 3.42 ± 0.25 | 3.5 ± 0.28 |  |  |

| Sequence | protein stability index [1] | protein stability index [2] | protein stability index (treatment: DMSO, c terminus: native) | protein stability index (treatment: MLN4924 1 uM, 8 h, c terminus: native) |
| --- | --- | --- | --- | --- |
| TRQLHEKTSQLSYYYMGFYIHSCP [ATE1] | 2.83 ± 0.71 | 2.54 ± 0.41 |  |  |
| TRVLAEMREQYEAMAERNRRDAEE [KRT13] | 5.26 ± 0.2 | 5.18 ± 0.28 |  |  |
| TSSLFRTEPMAWNETADLGLDIGA [CTNNB1] | 3.71 ± 0.24 | 3.82 ± 0.59 |  |  |
| TTVPEVEPPQDSHSRKTVLIKTIE [PRPH] | 4.58 ± 0.3 | 4.6 ± 0.38 |  |  |
| TVHEVDIFRCFCPVFLHSQMLWEL [DENND6A] | 2.89 ± 0.61 | 3.33 ± 0.49 |  |  |
| TVPDEFTVEERQTGMWWRHLVAGG [SLC25A25] | 2.77 ± 0.19 | 3 ± 0.14 |  |  |
| TWRDPQDEVPGSQGSQASQAPPVP [NR2F2] | 5.18 ± 0.19 | 5.16 ± 0.23 |  |  |
| TWVTVKNGSGDMIFEGNSEKEIPV [CPXM2] | 4 ± 0.2 | 3.9 ± 0.081 |  |  |
| TYNLTEVDKYVNSFVLKNFPALLS [KLHL13] | 2.08 ± 0.26 | 2.28 ± 0.23 |  |  |
| VAEETPDGAPALCPSPEALSPEPP [PRKX] | 5.48 ± 0.21 | 5.41 ± 0.31 |  |  |
| VAFLEQRASALLASCSKNCTNSPA [FBXO34] | 2.9 ± 0.25 | 2.76 ± 0.28 |  |  |
| VAITILQDDHDHKVQELMSTHELE [MTUS2] | 3.3 ± 0.3 | 3.43 ± 0.23 |  |  |
| VAPQDQCKLTCQAQALGYYYVLEP [ADAMTS4] | 2.58 ± 0.22 | 2.4 ± 0.04 |  |  |
| VASEMRFVQDLVRALEQEKLQGVE [DAPK3] | 4.42 ± 0.44 | 4.73 ± 0.37 |  |  |
| VASGSTPAPALCCAPYDSRLLGSA [IRX6] | 2.64 ± 0.21 | 2.99 ± 0.13 |  |  |
| VASVGNSRPTGQQLESLGLLAPGE [KISS1] | 4.44 ± 0.17 | 4.52 ± 0.3 |  |  |
| VAVLLLFLVVREPPRGAVERHSDL [SPNS1] | 3.02 ± 0.64 | 2.99 ± 0.53 |  |  |
| VCCCELGVNPDQVEKIRKLPNTLL [ANKRD40] | 2.26 ± 0.36 | 2.82 ± 0.32 |  |  |
| VCVFLSHGEGNHIYAYDAKIEIQT [CASP6] | 3.11 ± 0.26 | 2.75 ± 0.64 |  |  |
| VEALQLSARWLEVLRTYLELVLCV [FBXO33] | 2.58 ± 0.35 | 2.46 ± 0.73 |  |  |
